Data: patent US20240034813A1 (Janssen / Centocor, published 2024)

Legend:
[1] = target: T1, recombinant human EGFR/ErbB1/HER1 with C-terminal His tag, Cy5-labeled (human, UniProt P00533 25-645, Cy5 label (reacted with Cy5 Mono NHS Ester; sites not stated)); test: competitive TR-FRET (Eu-amivantamab/Cy5-EGFR), EC50 ratio vs Reference Material; Ex. 11 drug product, 5 months at 5 C
T1 construct: Commercial protein; also called Cy5-EGFR; Cy5-labeled EGFR antigen; not shown: C-terminal His tag
Description: (§1) In this procedure, varying concentrations of unlabeled bispecific EGFR-cMet antibody sample compete with donor fluorophore (Europium (Eu) chelate) labeled bispecific EGFR-cMet antibody for binding to an acceptor fluorophore (Cy5)-labeled EGFR antigen. Excitation of the donor fluorophore results in a transfer of energy to the bound acceptor fluorophore (FRET process). The resultant FRET is detected by emission of light at 665 nm using a microplate reader capable of measuring time-resolved fluorescence. Sample dose response curves are compared to the RM.
(§2) EGFR Binding Materials and Methods. Certified commercial EGFR, a recombinant human EGFR/ErbB1/HER1 with C-terminal His tag is reacted with certified commercial Cy5 Mono NHS Ester to produce Cy5-labeled EGFR. Validated bispecific EGFR-cMet antibody is reacted with certified commercial Europium (Eu) chelate to produce Eu-labeled bispecific EGFR-cMet antibody. […] Fluorescence is then measured by spectrophotometry at 665 nm, plotted against antibody concentration and analyzed by a four-parameter logistic model. The antibody concentration required to obtain half of the maximum fluorescence response (EC50) is determined for RM, assay control and samples. The potencies of assay control and samples are calculated based on the ratio of the sample (or control) and RM EC50 values and reported as a percentage activity relative to the RM.

[2] = target: T2, recombinant cMet/HGFR with c-terminal His-tag, Cy5-labeled (UniProt P08581 25-932, limits assumed, Cy5 label (reacted with Cy5 Mono NHS Ester; sites not stated)); test: competitive TR-FRET (Eu-amivantamab/Cy5-c-MET), EC50 ratio vs Reference Material; Ex. 12 drug product with rHuPH20, 3 months at 40 C
T2 construct: Commercial protein; also called Cy5-c-MET; Cy5-labeled c-MET antigen; not shown: C-terminal His-tag
Description: as §1, with “(Cy5)-labeled c-MET” for “(Cy5)-labeled EGFR”, “the Reference Material (RM).” for “the RM.”
as §2, with “c-MET Binding” for “EGFR Binding”, “commercial cMet,” for “commercial EGFR,”, “recombinant cMet/HGFR” for “recombinant human EGFR/ErbB1/HER1”, “with c-terminal His-tag” for “with C-terminal His tag”, “Cy5-labeled c-MET.” for “Cy5-labeled EGFR.”, “produce Eu labeled” for “produce Eu-labeled”

[3] = target: T2, recombinant cMet/HGFR with c-terminal …; test: competitive TR-FRET (Eu-amivantamab/Cy5-c-MET), EC50 ratio vs Reference Material; Ex. 2 Formulation 3 (acetate), T0, 40 C table
Description: as §1, with “(Cy5)-labeled c-MET” for “(Cy5)-labeled EGFR”, “the Reference Material (RM).” for “the RM.”
as §2, with “c-MET Binding” for “EGFR Binding”, “commercial cMet,” for “commercial EGFR,”, “recombinant cMet/HGFR” for “recombinant human EGFR/ErbB1/HER1”, “with c-terminal His-tag” for “with C-terminal His tag”, “Cy5-labeled c-MET.” for “Cy5-labeled EGFR.”, “produce Eu labeled” for “produce Eu-labeled”

[4] = target: T1, recombinant human EGFR/ErbB1/HER1 with …; test: competitive TR-FRET (Eu-amivantamab/Cy5-EGFR), EC50 ratio vs Reference Material; Ex. 2 Formulation 3 (acetate), 1 month at 40 C
Description: as §1, §2

[5] = target: T2, recombinant cMet/HGFR with c-terminal …; test: competitive TR-FRET (Eu-amivantamab/Cy5-c-MET), EC50 ratio vs Reference Material; Ex. 2 Formulation 3 (acetate), 1 month at 40 C
Description: as §1, with “(Cy5)-labeled c-MET” for “(Cy5)-labeled EGFR”, “the Reference Material (RM).” for “the RM.”
as §2, with “c-MET Binding” for “EGFR Binding”, “commercial cMet,” for “commercial EGFR,”, “recombinant cMet/HGFR” for “recombinant human EGFR/ErbB1/HER1”, “with c-terminal His-tag” for “with C-terminal His tag”, “Cy5-labeled c-MET.” for “Cy5-labeled EGFR.”, “produce Eu labeled” for “produce Eu-labeled”

[6] = target: T1, recombinant human EGFR/ErbB1/HER1 with …; test: competitive TR-FRET (Eu-amivantamab/Cy5-EGFR), EC50 ratio vs Reference Material; Ex. 2 Formulation 1 (10 mM histidine), T0, 25 C table
Description: as §1, §2

[7] = target: T1, recombinant human EGFR/ErbB1/HER1 with …; test: competitive TR-FRET (Eu-amivantamab/Cy5-EGFR), EC50 ratio vs Reference Material; Ex. 12 drug product with rHuPH20, 3 months at 5 C
Description: as §1, §2

[8] = target: T2, recombinant cMet/HGFR with c-terminal …; test: competitive TR-FRET (Eu-amivantamab/Cy5-c-MET), EC50 ratio vs Reference Material; Ex. 12 drug product with rHuPH20, 6 months at 25 C
Description: as §1, with “(Cy5)-labeled c-MET” for “(Cy5)-labeled EGFR”, “the Reference Material (RM).” for “the RM.”
as §2, with “c-MET Binding” for “EGFR Binding”, “commercial cMet,” for “commercial EGFR,”, “recombinant cMet/HGFR” for “recombinant human EGFR/ErbB1/HER1”, “with c-terminal His-tag” for “with C-terminal His tag”, “Cy5-labeled c-MET.” for “Cy5-labeled EGFR.”, “produce Eu labeled” for “produce Eu-labeled”

EGFR Binding activity relative to Reference Material (%) [1]: 85%
cMET Binding activity relative to Reference Material (%) [2]: 68%
cMET Binding % activity relative to RM [3]: 94%
EGFR Binding % activity relative to RM [4]: 76%
cMET Binding % activity relative to RM [5]: 100%
EGFR Binding % activity relative to RM [6]: 103%
EGFR Binding activity relative to Reference Material (%) [7]: 82%
cMET Binding activity relative to Reference Material (%) [8]: 103%
B1: amivantamab (bispecific antibody, human IgG1, kappa)
heavy 1: not shown
light 1: not shown
heavy 2: not shown
light 2: DIQMTQSPSSVSASVGDRVTITCRASQGISNWLAWFQHKPGKAPKLLIYAASSLLSGVPSRFSGSGSGTDFTLTISSLQPEDFATYYCQQANSFPITFGQGTRLEIKRTVAAPSVFIFPPSDEQLKSGTASVVCLLNNFYPREAKVQWKVDNALQSGNSQESVTEQDSKDSTYSLSSTLTLSKADYEKHKVYACEVTHQGLSSPVTKSFNRGEC
notes: The samples tested were high concentration (160 mg/mL) formulations, fresh or stored or stressed; also called JNJ-61186372; bispecific EGFR-cMet antibody
